Article PMC10397247

Legend:
4H949-bA = target: T1, 4H949-bA; assay: two-hybrid library CCNG1;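 also: natural log of median RNA to DNA barcode read ratio; higher means stronger binding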
T1 chain: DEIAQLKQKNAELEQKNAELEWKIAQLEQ

4H932-bA = target: T2, 4H932-bA; assay: two-hybrid library CCNG1;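 also: natural log of median RNA to DNA barcode read ratio; higher means stronger binding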
T2 chain: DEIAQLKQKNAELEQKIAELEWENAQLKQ

4H730-bA = target: T3, 4H730-bA; assay: two-hybrid library CCNG1;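 also: natural log of median RNA to DNA barcode read ratio; higher means stronger binding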
T3 chain: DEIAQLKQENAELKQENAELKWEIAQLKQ

4H796-bA = target: T4, 4H796-bA; assay: two-hybrid library CCNG1;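 also: natural log of median RNA to DNA barcode read ratio; higher means stronger binding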
T4 chain: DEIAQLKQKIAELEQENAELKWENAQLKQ

4H56-bA = target: T5, 4H56-bA; assay: two-hybrid library CCNG1;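 also: natural log of median RNA to DNA barcode read ratio; higher means stronger binding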
T5 chain: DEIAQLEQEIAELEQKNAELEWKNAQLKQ

P7SHb = target: T6, P7SHb; assay: two-hybrid library CCNG1;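 also: natural log of median RNA to DNA barcode read ratio; higher means stronger binding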
T6 chain: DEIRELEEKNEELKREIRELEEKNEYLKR

4H570-bN = target: T7, 4H570-bN; assay: two-hybrid library CCNG1
T7 chain: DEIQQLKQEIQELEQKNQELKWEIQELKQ

4H619-bN = target: T8, 4H619-bN; assay: two-hybrid library CCNG1
T8 chain: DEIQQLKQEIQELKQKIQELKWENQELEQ

4H3638-bN = target: T9, 4H3638-bN; assay: two-hybrid library CCNG1
T9 chain: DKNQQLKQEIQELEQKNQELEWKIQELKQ

4H584-bN = target: T10, 4H584-bN; assay: two-hybrid library CCNG1
T10 chain: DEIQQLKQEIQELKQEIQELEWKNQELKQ

4H906-bN = target: T11, 4H906-bN; assay: two-hybrid library CCNG1
T11 chain: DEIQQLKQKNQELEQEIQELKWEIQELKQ

4H3172-bN = target: T12, 4H3172-bN; assay: two-hybrid library CCNG1
T12 chain: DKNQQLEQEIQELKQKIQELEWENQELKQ

4H3974-bN = target: T13, 4H3974-bN; assay: two-hybrid library CCNG1
T13 chain: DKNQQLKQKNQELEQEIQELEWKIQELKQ

4H3817-bN = target: T14, 4H3817-bN; assay: two-hybrid library CCNG1
T14 chain: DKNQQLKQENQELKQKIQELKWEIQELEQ

4H850-bN = target: T15, 4H850-bN; assay: two-hybrid library CCNG1
T15 chain: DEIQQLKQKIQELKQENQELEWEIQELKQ

4H3631-bN = target: T16, 4H3631-bN; assay: two-hybrid library CCNG1
T16 chain: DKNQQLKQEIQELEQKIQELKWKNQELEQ

4H3414-bN = target: T17, 4H3414-bN; assay: two-hybrid library CCNG1
T17 chain: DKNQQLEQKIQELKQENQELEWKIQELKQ

4H2915-bA = target: T18, 4H2915-bA; assay: two-hybrid library CCNG1
T18 chain: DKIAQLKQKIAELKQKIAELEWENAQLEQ

4H319-bN = target: T19, 4H319-bN; assay: two-hybrid library CCNG1
T19 chain: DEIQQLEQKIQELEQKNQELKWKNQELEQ

4H319-bA = target: T20, 4H319-bA; assay: two-hybrid library CCNG1
T20 chain: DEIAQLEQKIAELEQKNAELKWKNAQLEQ

4H3277-bA = target: T21, 4H3277-bA; assay: two-hybrid library CCNG1
T21 chain: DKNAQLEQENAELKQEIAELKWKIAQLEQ

4H2839-bA = target: T22, 4H2839-bA; assay: two-hybrid library CCNG1
T22 chain: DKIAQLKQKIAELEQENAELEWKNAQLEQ

4H741-bA = target: T23, 4H741-bA; assay: two-hybrid library CCNG1
T23 chain: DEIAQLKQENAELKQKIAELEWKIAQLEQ

4H3057-bA = target: T24, 4H3057-bA; assay: two-hybrid library CCNG1
T24 chain: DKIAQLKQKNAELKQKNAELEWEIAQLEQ

4H3298-bA = target: T25, 4H3298-bA; assay: two-hybrid library CCNG1
T25 chain: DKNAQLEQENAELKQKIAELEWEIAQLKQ

4H2717-bA = target: T26, 4H2717-bA; assay: two-hybrid library CCNG1
T26 chain: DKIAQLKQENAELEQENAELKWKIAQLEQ

4H492-bA = target: T27, 4H492-bA; assay: two-hybrid library CCNG1
T27 chain: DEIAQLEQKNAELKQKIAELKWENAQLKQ

O6-bP = target: T28, O6-bP; assay: two-hybrid library CCNG1
T28 chain: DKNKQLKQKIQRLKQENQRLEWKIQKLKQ

4H2859-bH = target: T29, 4H2859-bH; assay: two-hybrid library CCNG1
T29 chain: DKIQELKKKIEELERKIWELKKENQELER

4H40-bA = target: T30, 4H40-bA; assay: two-hybrid library CCNG1
T30 chain: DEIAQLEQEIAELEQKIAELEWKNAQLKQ

4H2692-bA = target: T31, 4H2692-bA; assay: two-hybrid library CCNG1
T31 chain: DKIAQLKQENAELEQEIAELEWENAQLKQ

4H348-bA = target: T32, 4H348-bA; assay: two-hybrid library CCNG1
T32 chain: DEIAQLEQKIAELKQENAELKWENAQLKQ

4H477-bA = target: T33, 4H477-bA; assay: two-hybrid library CCNG1
T33 chain: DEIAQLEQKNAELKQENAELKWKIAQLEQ

4H741-bN = target: T34, 4H741-bN; assay: two-hybrid library CCNG1
T34 chain: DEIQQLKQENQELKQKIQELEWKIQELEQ

4H754-bN = target: T35, 4H754-bN; assay: two-hybrid library CCNG1
T35 chain: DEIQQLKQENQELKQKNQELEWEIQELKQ

4H626-bN = target: T36, 4H626-bN; assay: two-hybrid library CCNG1
T36 chain: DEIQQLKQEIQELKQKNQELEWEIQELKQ

4H40-bN = target: T37, 4H40-bN; assay: two-hybrid library CCNG1
T37 chain: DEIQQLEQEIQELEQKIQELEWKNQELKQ

4H477-bN = target: T38, 4H477-bN; assay: two-hybrid library CCNG1
T38 chain: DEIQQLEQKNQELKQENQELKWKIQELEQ

4H591-bN = target: T39, 4H591-bN; assay: two-hybrid library CCNG1
T39 chain: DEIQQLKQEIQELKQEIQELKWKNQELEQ

4H3628-bN = target: T40, 4H3628-bN; assay: two-hybrid library CCNG1
T40 chain: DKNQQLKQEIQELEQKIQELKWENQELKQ

4H3497-bN = target: T41, 4H3497-bN; assay: two-hybrid library CCNG1
T41 chain: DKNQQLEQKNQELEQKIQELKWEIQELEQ

4H3926-bN = target: T42, 4H3926-bN; assay: two-hybrid library CCNG1
T42 chain: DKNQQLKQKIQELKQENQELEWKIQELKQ

4H3462-bN = target: T43, 4H3462-bN; assay: two-hybrid library CCNG1
T43 chain: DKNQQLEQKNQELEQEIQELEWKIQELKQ

4H348-bN = target: T44, 4H348-bN; assay: two-hybrid library CCNG1
T44 chain: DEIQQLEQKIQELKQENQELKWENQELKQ

4H3277-bN = target: T45, 4H3277-bN; assay: two-hybrid library CCNG1
T45 chain: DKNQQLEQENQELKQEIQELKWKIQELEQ

4H492-bN = target: T46, 4H492-bN; assay: two-hybrid library CCNG1
T46 chain: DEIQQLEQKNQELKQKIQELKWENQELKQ

4H3298-bN = target: T47, 4H3298-bN; assay: two-hybrid library CCNG1
T47 chain: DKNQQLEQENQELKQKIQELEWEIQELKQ

4H3613-bN = target: T48, 4H3613-bN; assay: two-hybrid library CCNG1
T48 chain: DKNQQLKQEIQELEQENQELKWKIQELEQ

P2-AA = target: T49, P2-AA; assay: two-hybrid library CCmax; conditions: mean of both orientations
T49 chain: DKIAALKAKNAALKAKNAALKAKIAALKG

P2-AA-1HAA-D = target: T50, P2-AA-1HAA-D; assay: two-hybrid library CCmax; conditions: mean of both orientations
T50 chain: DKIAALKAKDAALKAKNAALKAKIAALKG

P2-AA-1HAA-T = target: T51, P2-AA-1HAA-T; assay: two-hybrid library CCmax; conditions: mean of both orientations
T51 chain: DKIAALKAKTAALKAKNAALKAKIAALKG

P2-AA-1HAA-V = target: T52, P2-AA-1HAA-V; assay: two-hybrid library CCmax; conditions: mean of both orientations
T52 chain: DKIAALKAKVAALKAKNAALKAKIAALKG

P2-AA-1HAA-I = target: T53, P2-AA-1HAA-I; assay: two-hybrid library CCmax; conditions: mean of both orientations
T53 chain: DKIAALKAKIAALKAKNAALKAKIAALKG

P2-AA-1HAA-E = target: T54, P2-AA-1HAA-E; assay: two-hybrid library CCmax; conditions: mean of both orientations
T54 chain: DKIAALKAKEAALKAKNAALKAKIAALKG

DEIAQLEQEIAELEQKNAELEWKNAQLKQ [4H56-bA]
interaction score (4H949-bA): -0.628 | interaction score (4H932-bA): -0.898 | interaction score (4H730-bA): -1.15 | interaction score (4H796-bA): -0.775 | interaction score (4H56-bA): -0.593 | interaction score (P7SHb): 0.584

DKNQQLEQEIQELKQKIQELEWENQELKQ [4H3172-bN]
interaction score (4H570-bN): -0.602 | interaction score (4H619-bN): 0.271 | interaction score (4H3638-bN): -0.362 | interaction score (4H584-bN): -0.681 | interaction score (4H906-bN): -1.5 | interaction score (4H3172-bN): -0.109 | interaction score (4H3974-bN): -0.234 | interaction score (4H3817-bN): -0.519 | interaction score (4H850-bN): -0.789 | interaction score (4H3631-bN): 1.27 | interaction score (4H3414-bN): 0.0803

DKIAQLKQENAELEQEIAELEWENAQLKQ [4H2692-bA]
interaction score (4H2915-bA): 0.654 | interaction score (4H319-bN): 0.192 | interaction score (4H319-bA): -0.498 | interaction score (4H3277-bA): -0.458 | interaction score (4H2839-bA): -1.15 | interaction score (4H741-bA): -0.251 | interaction score (4H3057-bA): -0.734 | interaction score (4H3298-bA): 1.59 | interaction score (4H2717-bA): -0.0486 | interaction score (4H492-bA): 2.26 | interaction score (O6-bP): 0.95 | interaction score (4H2859-bH): -0.0963 | interaction score (4H40-bA): -0.113 | interaction score (4H2692-bA): -0.461 | interaction score (4H348-bA): -1.58 | interaction score (4H477-bA): -1.06

DKNQQLEQENQELKQEIQELKWKIQELEQ [4H3277-bN]
interaction score (4H741-bN): -0.405 | interaction score (4H754-bN): -1.54 | interaction score (4H626-bN): -0.819 | interaction score (4H40-bN): 0.44 | interaction score (4H477-bN): -1.11 | interaction score (4H591-bN): -1.66 | interaction score (4H906-bN): -1.79 | interaction score (4H3628-bN): -0.458 | interaction score (4H3497-bN): -0.895 | interaction score (4H3926-bN): -0.4 | interaction score (4H3462-bN): -1 | interaction score (4H348-bN): -1.89 | interaction score (4H3277-bN): 1.19 | interaction score (4H492-bN): -1.45 | interaction score (4H3298-bN): -0.281 | interaction score (4H3613-bN): -1.08

DEIAALEAEVAALEAENAALEAEIAALEG [P1-AA-1HAA-V]
interaction score (P2-AA): 2.01 | interaction score (P2-AA-1HAA-D): 1.95 | interaction score (P2-AA-1HAA-T): 2.16 | interaction score (P2-AA-1HAA-V): 2.01 | interaction score (P2-AA-1HAA-I): 2.11 | interaction score (P2-AA-1HAA-E): 1.98
